# B1: TPR t1 (parent)
# chain: GACCAAUCUGCCCUCAGAGCUCGAGAACAUCUUCGGAUGCAGAGGAGGCAGGCUUCGGUGGCGCGAUAGCGCCAACGUCCUCAACCUCCAAUGCAUCCCACCACAUGAUGAUGCCUGAAGAGCCUUGGUUUUUUG
# Variants of: B1
# Experiment: polymerase ribozyme fitness, log enrichment relative to wild type (log ratio); higher = more active; in vitro selection for triplet polymerase activity
# Summary of the method: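 Mutant libraries were PCR-built and transcribed for each subunit of a heterodimeric triplet polymerase ribozyme and selected for one round in triplicate at −7 °C, frozen, before gel excision of extended constructs and streptavidin-bead capture. Input and output libraries were Illumina-sequenced, keeping genotypes with ≥10 input reads and ≥1 read per output. Fitness is a logarithmic ratio of genotype to wild-type enrichment, in base 2, using inverse-variance-weighted replicate averages.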
row,Variant,polymerase ribozyme fitness (log ratio)
1,A46U C62G C88A,-4.01
2,G47A U92C,-2.73
3,G44U C70U A111C C124U,-2.44
4,G45U A50U G117U,-4.81
5,G47A G48A A118G,-2.29
6,G44U G47A G63C G120U U130G,-4.01
7,G44U G71U,-1.06
8,A46U C73A C123G G127A,-0.933
9,A46U A84U,-1.28
10,A46U A84C,-1.04
11,G47A U55A G60C A90U U92A,-4
12,G45A C98U,-1.75
13,A46U U112A,0.36
14,A46U C64U U81G,-6.35
15,G45U C64U C79G C114U,-5.29
16,A46U A74U G113A,-1.99
17,A46C C89U,-0.611
18,A46C C89A,-5.69
19,A46U G57A C79G,-2.59
20,A46U G47A A50G G60A,-3.56
21,A46U G122U,-0.865
22,A46C G61U U106A,0.556
23,A46G G117C,-3.96
24,G45U A46U U106G,-3.7

row,Variant,polymerase ribozyme fitness (log ratio)
1,A46G A91C G93A,-3.21
2,A46C G71U U87A C123U U132A,0.774
3,G45A G61A G110U U125C,-0.661
4,G45U U96C,-1.43
5,A46U G52A U109C C124G,-7.25
6,G45A U55C C70U G128A,-4.09
7,G45A C53A U109G G110U A121U,-3.48
8,G45C C53A G120A U129G,-1.07
9,G47C C79A,-5.18
10,G45A A50U U130C,-0.0855
11,A46C C115A,-1.52
12,A46C C72G G135U,-2.4
13,G44U G51C,-5.32
14,G44U U125A U131A,-2.47
15,A46G G120C G128C,-2.6
16,A46U C72G C114G,-3.52
17,A46U C72G C114U,-4.52
18,G45U C53U A105U,-3.69
19,G44U C70U C72U C79U G122A,-2.61
20,G47C C56U U106A C123A,-1.35
21,G47C A108G U112A U133A,-5.17
22,G44U C80U,-1.59
23,A46C U87A G110C,-3.24
24,A46G C53U C89U G128A,-3.9

row,Variant,polymerase ribozyme fitness (log ratio)
1,G44U C114A U116G,-4.56
2,G45A G63A C104A,-3.61
3,A46U U55C A95C,-2.5
4,A46C C72G,-2.19
5,A46U U106G,-2.72
6,G47A A84C A121C,0.928
7,A46G C85G,-2.68
8,A46U C79A C115G,-5.77
9,G47C G61A U87A U92A,-5.03
10,A46C G69U G135U,-0.586
11,A46G G110U U116A,-4.29
12,A46U G57U U132A,-0.968
13,G45C G61U C86U U87G G93C,-2.62
14,G45U G120U,-0.652
15,G45U A84G U96G C101G,-4.84
16,A46C G48A G51A U87G C123A,-1.77
17,G45C G51A U78A C123G,-2.51
18,A46G A108G G117A,-4.03
19,A46C C56A A91U C97U,-3.95
20,G47A C70G,-4.77
21,A46G A95U A105U U109A,-6.27
22,G45U G60C C88G,-1.14
23,G45U G48U A68C A74C A95G C97A C98U C104U G122U,-6.66
24,G45U G60A C82G C85G G117A,-3.09

row,Variant,polymerase ribozyme fitness (log ratio)
1,A46U G61U,-0.648
2,A46C G60C A68U,-7.2
3,G47A C85U C101U,-2.15
4,G45U C114U A121U,-1.71
5,G45U A68G C79G C99U U112A,-7.19
6,A46C U54A G120U,-0.501
7,A46C C72A U112C C124U,1.22
8,G47A G93U,-2.71
9,A46G G51U,-2.98
10,G45U C70U A119U G127A,-3.74
11,A46G G58C C99U C114G,-6.59
12,G44U G113C U130A,-2.45
13,G45U G113U,-3.73
14,A46C C101G G120A,-2
15,G47A G120C U130C,0.162
16,G47A G58A C62U C101U A108G,-2.41
17,G47C C88A C124A,-0.557
18,A46U A74U A91G C123G,-3.09
19,A46U G93A G120A G122A,-3.08
20,G47C C101A,-2.59
21,G45U C72G G93A,-2.7
22,A46U G107U,-5.66
23,A46U C56A C72G G93A G120A C123U,-4.15
24,G45U C114A,-0.0443

row,Variant,polymerase ribozyme fitness (log ratio)
1,G45U C114G,-3.8
2,G47C G52C,-3
3,G47A C79U A100U A111U G120A U125G U131A U132C,-6.42
4,G45U C56G G63C C101U,-5.92
5,G44U C97A,-6.15
6,G45U G52A C72U G110C C123U,-6.25
7,A46U G48A C62U,-2.23
8,G45U C76G U112A A121U,0.648
9,G45U C64U A121G,-0.662
10,G45A U78C C86A G120U,-2.19
11,G47A G69C C86A C97U C115U C124G U125C,-5.52
12,G47A C88U,-0.911
13,G45A U55C C62A C89G,-3.49
14,A46G C49G G69C C104U,-3.16
15,G45A G110A,-1.34
16,A46U G48A G128A,-4.23
17,G45C C89U U133A,-1.58
18,G45U C56U A121U,0.651
19,G45U C124A,0.716
20,G47A C72U U78A C88A A119U U132C,-1.87
21,G47A C70A G77A C79U C86G,-5.44
22,G45U G57C G69U G110A U125A,-0.972
23,G45A C72U C89G A91C,-1.81
24,G45U U59A C101U,-0.987

row,Variant,polymerase ribozyme fitness (log ratio)
1,G45A C80U C115A A121G,0.603
2,G47A G69U G77C C99U C114G,-3.2
3,A46C G51C,-4.63
4,A46U G61A A66U G113U C123G U129A,-5.08
5,G45U C62U U112G U126A G128A U130A,-3.11
6,G45A U59A A83C C114G G122C,-4.2
7,G44U G69C,-0.825
8,G44U C72G G120C,-0.514
9,A46U G48A U87A G120A U129C,-0.344
10,G47A A50U A91C,-4.79
11,G45A U130A,-1.49
12,A46U C70U C124U,-0.517
13,G45U A111U,-4.37
14,G45U U132A,-1.91
15,A46U G60A C80A A121G,-1.19
16,G47A C56U C94U,-1.1
17,A46G G63C A84G C88U C124U,-0.641
18,G45A A46C G58U G61U C85A,-4.13
19,A46U C56G U78C G93C G120U,-3.59
20,A46U C64U C101U U132C,-1.55
21,A46G G113A G120U U133A,-3.17
22,A46C C56A G110U,-2.45
23,G47A U87G,-0.336
24,G45U C97A U112A,-5.81

row,Variant,polymerase ribozyme fitness (log ratio)
1,G45U C62A C89G U112A,-4.99
2,G45A C53U C97U C115U U126C U130A,-5.76
3,A46C C72U U81A A105C,-4.47
4,G45A C114A,-1.97
5,A46U A105C A119G C124A,-1.39
6,G45A G63A A95G C101G U130C,-3.14
7,A46U A74C C88G,-4.4
8,G45U A66C,-2.87
9,A46G C70G C94U,-3.9
10,G45C C82U G93A C101U,-1.84
11,G44U G45A U54A C72G,-3.66
12,A46C G63U U106A G117A,-3.84
13,G45C C53G U81A A91C,-4.15
14,G45A C85U C94A,-2.05
15,A46C U112G G122U G135U,-2.04
16,G45A C72U A91G U129A,-3.43
17,G45A G63A,-1.39
18,G47A U78G U81A C86U U133G,-1.35
19,G45A G48U,-1.58
20,A46U A90U A105U C115U C124U,-5.04
21,G45C G60C U78A C89A G120C G127A,-5.17
22,G47A C102U,-2.85
23,G45U C85U,-2.01

# From the RNAGym collection of RNA variant scans (doi:10.1073/pnas.2313332121)
